Laboratory results as given in patent US20080089837A1.

Target: PDGFR-alpha (platelet derived growth factor receptor-alpha) on human osteosarcoma MG-63 cells (human) (UniProt P16234)
Test: FACS titration on MG-63 cells, nonlinear fit of geometric mean fluorescence; goat anti-mouse detection; 95% CI ±99 pM

Chain of PDGFR-alpha (platelet derived growth factor receptor-alpha) on human osteosarcoma MG-63 cells (human) (P16234 24-1089): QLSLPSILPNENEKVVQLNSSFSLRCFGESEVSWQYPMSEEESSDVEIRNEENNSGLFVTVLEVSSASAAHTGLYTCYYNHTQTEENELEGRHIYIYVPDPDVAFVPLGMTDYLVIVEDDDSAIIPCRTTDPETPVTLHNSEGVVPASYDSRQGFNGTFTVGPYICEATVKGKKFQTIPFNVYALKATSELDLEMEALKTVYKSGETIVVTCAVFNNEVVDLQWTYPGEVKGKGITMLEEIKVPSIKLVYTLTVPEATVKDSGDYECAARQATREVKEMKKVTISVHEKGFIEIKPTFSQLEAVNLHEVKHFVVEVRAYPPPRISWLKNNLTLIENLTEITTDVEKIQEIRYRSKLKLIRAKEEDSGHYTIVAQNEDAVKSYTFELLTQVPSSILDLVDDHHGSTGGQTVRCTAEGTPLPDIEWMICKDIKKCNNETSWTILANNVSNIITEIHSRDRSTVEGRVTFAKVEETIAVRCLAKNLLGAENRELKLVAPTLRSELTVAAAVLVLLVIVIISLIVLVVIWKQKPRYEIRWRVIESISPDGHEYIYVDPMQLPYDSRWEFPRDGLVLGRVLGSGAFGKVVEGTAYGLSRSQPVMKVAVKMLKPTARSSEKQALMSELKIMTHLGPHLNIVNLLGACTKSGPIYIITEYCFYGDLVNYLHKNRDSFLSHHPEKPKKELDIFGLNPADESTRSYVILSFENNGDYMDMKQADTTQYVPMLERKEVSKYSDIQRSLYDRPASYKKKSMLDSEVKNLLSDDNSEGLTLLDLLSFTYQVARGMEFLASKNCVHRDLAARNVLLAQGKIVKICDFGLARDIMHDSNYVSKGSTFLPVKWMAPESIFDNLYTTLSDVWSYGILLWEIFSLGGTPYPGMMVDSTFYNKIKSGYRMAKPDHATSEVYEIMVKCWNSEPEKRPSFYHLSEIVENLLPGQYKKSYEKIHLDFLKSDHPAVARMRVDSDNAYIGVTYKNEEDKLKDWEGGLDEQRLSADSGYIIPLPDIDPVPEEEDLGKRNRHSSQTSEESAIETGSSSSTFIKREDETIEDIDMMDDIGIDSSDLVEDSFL

- Kd: 146 pM
Substance: CD140a control antibody
